Laboratory results reported in US20260092121A1 (TALEM THERAPEUTICS, published 2026).
Changes are numbered by the printed parent chain. In names and notes the source's numbering stands.

B1: anti-TrkB clone 4G12 (antibody, V domains shown)
VH: EVQLVQSGAEVKKPGESLKISCKGSGYSFTSYWIGWVRQMPGKGLEWMGIIYPGDSDTRYSPSFQGQVTISADKSISTAYLQWSSLKASDTAMYYCARHDYGMDVWGQGTTVTVSS
VL: QSVLTQPPSVSVSPGQTASITCSGDKLGDKFASWYQQKPGQSPVLVIYQDNKRPSRVPERFSGSNSGNTATLTISETQAMDEADYYCQAWVNNTVVFGGGTKVTVL
notes: full-length IgG
B2: anti-TrkB clone 5A07 (antibody, V domains shown)
VH: B1 VH with E1Q, T111M
VL: LPVLTQPPSASGTPGQRVTISCSGSRSNVGGNTVSWYQQLPGSAPKLLIYTNNQRPSGVPDRFSGSKSGTSASLAISGLQSEDEADYYCAAWDDSLNGYVFGTGTQLTVL
notes: full-length IgG
B3: anti-TrkB clone 2E02 (antibody, V domains shown)
VH: QVQLQQSGPGLVKPSQTLSVTCVISGDSVSSKSAAWHWIRQSPSRGLEWLGRTYYRSKWYSDYGESVKSRVVINADTSNNQISLQLSSVTPEDTAAYYCARGIGSLNFDIWGQGTMVTVSS
VL: QSVLTQPPSASGSPGQSVTISCTGTSGDVGGYNYVSWYQQHPGKAPKLILYEVTKRPSGVPDRFSGSKSGNTASLTVSGLQAEDEADYYCSSYGGPNNLVLFGGGTKVTVL
notes: full-length IgG
B4: anti-TrkB clone 1F01 (antibody, V domains shown)
VH: B3 VH with S15A, V20L, V23D
VL: QSVVTQPASVSGSPGQSITISCTGTSSDIGGYDYVSWYQQHPGKAPKLMIFDVSNRPSGVSNRFSGSKSGNTASLTISGLQADDEADYYCSSYRAGSTLNLLFGGGTKLTVL
notes: full-length IgG
B5: anti-TrkB clone 2C07 (antibody, V domains shown)
VH: QVQLQQSGGGVVQPGRSLRLSCAASGFTFSNYAMHWVRQAPGKGLEWVAVISYDGSNEYYADSVKGRFTISRDNSRNTLDLQMNSLRAEDTAVYYCARGTNYGMDVWGQGTMVTVSS
VL: LSELTQDPAVSVALGQTVRITCQGDSLRSYYASWYQQKPGQAPVLVIYGKNNRPSGIPDRFSGSDSGKTASLTITGAQAEDEADYYCQSRDTTGNYLLFGGGTKLTVL
notes: full-length IgG
B6: anti-TrkB clone 6B11 (antibody, V domains shown)
VH: QVQLQQSGAGLVKASQTLALTCAISGDSVSSNSAAWNWIRQSPSRGLEWLGRTYYRSKWYNDYAVSVKSRITINPDTSTNQFSLQLNSVTPEDTAVYYCTRGTGDKRAFDYWGQGTLVTVSS
VL: QSVLTQPPSASGTPGQRVTISCSGSSSNIGSYFVSWYQQLPGTAPKLLIYRNDKRPSGVPERFSGSKSGTSASLAISGLQSEDEADYYCAAWDDSLSGRIFGGGTKLTVL
notes: full-length IgG
B7: anti-TrkB clone 1E02 (antibody, V domains shown)
VH: QVQLLQSAAEVKKPGESLKISCKGSGYRFTSYWIGWVRQMPGKGLEWVGIIYPDDSDTRYSPSFQGQVTISADTSISTTYLQWSSLKASDTAIYYCASGEVAFDVWGQGTTVTVSS
VL: QSVLTQPPSLSVSPRQTASITCSGDKLGDKFVSWYQQKPGQSPVLVIYQDTKRPSGIPERFSGSNSGNTATLTISGTQAMDEADYYCQAWDSSTGVFGGGTKLTVL
notes: full-length IgG
B8: anti-TrkB clone 5C01 (antibody, V domains shown)
VH: QMQLVQSGAEVKKPGESLKISCKGSGYSFTSYWIGWVRQMPGKGLEWLGIIYPGDSDTRYSPSFQGQVTISADKSISTAYLQWSSLKASDTAMYYCARLGQGSGPFDYWGQGTLVTVSS
VL: QSVVTQPPSVSGTPGQRVSISCSGSSSNIGSHSVTWFQQLPGTAPKLLIYGNSQRPSGVPDRFSGSKSGTSASLAISGLQSEDEADYYCASWDDSLNGYVFGTGTKLTVL
notes: full-length IgG
B9: anti-TrkB clone 3C12 (antibody, V domains shown)
VH: QVQLVQSGAEVKKPGESLKISCKGSGYSFTSYWIGWVRQMPGKGLEWMGIIYPGDSDTRYSPSFQGQVTISADKSISTAYLQWSSLKASDTAMYYCTRSSFNDHWGQGTLVTVSS
VL: QPVLTQPPSVSVSPGQTASITCSGDKLGNKFVSWFQQKPGQSPVLVIYQDTKRPSGIPERFSGSNSGSTATLTITGTQAMDDADYYCQAWNTNTALFGGGTKLTVL
notes: full-length IgG
B10: KiH.F5_TrkB × 8A05_CD3 (bispecific antibody)
scFv: not shown
VH: QVQLQQSGGGLVQSGGSLRLSCAASGFSFGSSAMSWVRQAPGRGLEWVSGISHSGSTTYYADSVKGRFTISRDNSKNTLYLQMNSLRVEDTAVYYCAKIGAYGYYFHYWGQGTLVTVSS
VL: NFMLTQPHSVSESPGKTVTISCTRSGGSIASNYVQWYQQRPGSSPTTVIYDDNQRPSGVPDRFSGSIDSSSNSASLTISGLKTEDEADYYCQSSDNINHVIFGGGTKLTVL
notes: scFv-knob-Fc (IgG1 T366W/S354C) + Fab-hole-Fc (T366S/L368A/Y407V/Y349C); also called F5-8A05; F5_8A05
B11: KiH.3H11_TrkB × 8A05_CD3 (bispecific antibody)
scFv: QVQLQQSGPGLVKPSQTLSLTCAISGDSVSSNSAVWNWIRQSPSRGLEWLGRTYYRSKWYTDFAVSVKSRITINPDTSKNQFSLQLNSVTPEDTAVYYCARGRNGMDVWGQGTMVTVSTSSGGGGSGGGGSGGSALLPVLTQPPSASGTPGQRVTISCSGSSSNIGHKYVYWYQQLPGAAPKLLIYRNNQRPSGVPDRFSASKSGTSASLAISGLRSEDEADYYCATWDDSLNGVVFGGGTKVTVL
VH: B10 VH
VL: B10 VL
notes: scFv-knob-Fc (IgG1 T366W/S354C) + Fab-hole-Fc (T366S/L368A/Y407V/Y349C); also called 3H11-8A05
B12: KiH.F5_TrkB × 3G07_CD3 (bispecific antibody)
scFv: not shown
VH: B10 VH with S14P
VL: NFMLTQPHSLSESPGKTVTISCTRSSGSIASKYVQWYQQRPGSAPTTVIYDDKQRPSGVPDRFSGSFDSSSNSASLTISGLKTEDEADYYCQSFDSTNQAVVFGGGTKLTVL
notes: scFv-knob-Fc (IgG1 T366W/S354C) + Fab-hole-Fc (T366S/L368A/Y407V/Y349C); also called F5-3G07; F5_3G07
B13: KiH.3H11_TrkB × 3G07_CD3 (bispecific antibody)
scFv: B11 scFv
VH: B10 VH with S14P
VL: B12 VL
notes: scFv-knob-Fc (IgG1 T366W/S354C) + Fab-hole-Fc (T366S/L368A/Y407V/Y349C); also called 3H11-3G07
B14: KiH.F5_TrkB × 1A09_CD3 (bispecific antibody)
scFv: not shown
VH: EVQLVQSGGGLVKPGGSLRLSCAASGFTFSSYSMNWVRQAPGKGLEWVSSISSSSSYIYYADSVKGRFTISRDNSKNTLYLQMNSLRAEDTAVYYCARVKDYDSSLDYWGQGTLVTVSS
VL: SYELMQPPSVSVSPGQTARITCSGFKLGDKYVSWYQQKPGQSPVLVIYQDSKRPSGIPERFSGSNSGNTATLTISGTQAMDEADYYCQAWDSSTVVFGGGTKLTVL
notes: scFv-knob-Fc (IgG1 T366W/S354C) + Fab-hole-Fc (T366S/L368A/Y407V/Y349C); also called F5×1A09; F5-1A09
B15: KiH.3H11_TrkB × 1A09_CD3 (bispecific antibody)
scFv: B11 scFv
VH: B14 VH
VL: B14 VL
notes: scFv-knob-Fc (IgG1 T366W/S354C) + Fab-hole-Fc (T366S/L368A/Y407V/Y349C); also called 3H11-1A09
B16: KiH.6E08_TrkB × 1A09_CD3 (bispecific antibody)
scFv: QVQLVQSGGGVVQPGRSLRLSCAASGFTFSSYAMHWVRQAPGKGLEWVAVISYDGSNKYYADSVKGRFTISRDNSKNTLYLQMNSLRAEDTAVYYCARAFRRYDAFDIWGQGTLVTVSSSSGGGGSGGGGSGGSALDIQMTQTPLSLSVTLGQPASISCRSSQGLVYSDGNTYLNWFQQRPGQSPRRLIYKVSNRDSGVPDRFSGSGSGTDFTLKISRVEAEDVGVYYCMQGTHWPPAFGQGTKVEIK
VH: B14 VH
VL: B14 VL
notes: scFv-knob-Fc (IgG1 T366W/S354C) + Fab-hole-Fc (T366S/L368A/Y407V/Y349C); also called 6E08-1A09

target: TrkB in PathHunter eXpress TrkB Functional Assay cells (modified U2OS); experiment: cell-based or functional assay

| TrkB activation (EC50) | Binder |
| --- | --- |
| 0.07 µg/mL | B1 |
| 0.13 µg/mL | B2 |
| 0.12 µg/mL | B3 |
| 0.51 µg/mL | B4 |
| 0.036 µg/mL | B5 |
| 0.11 µg/mL | B6 |
| 0.047 µg/mL | B7 |
| 0.08 µg/mL | B8 |
| 0.018 µg/mL | B9 |

target: human TrkA-His (human, UniProt P04629 33-417, limits assumed); experiment: ELISA
Sequence (P04629 33-417 limits assumed): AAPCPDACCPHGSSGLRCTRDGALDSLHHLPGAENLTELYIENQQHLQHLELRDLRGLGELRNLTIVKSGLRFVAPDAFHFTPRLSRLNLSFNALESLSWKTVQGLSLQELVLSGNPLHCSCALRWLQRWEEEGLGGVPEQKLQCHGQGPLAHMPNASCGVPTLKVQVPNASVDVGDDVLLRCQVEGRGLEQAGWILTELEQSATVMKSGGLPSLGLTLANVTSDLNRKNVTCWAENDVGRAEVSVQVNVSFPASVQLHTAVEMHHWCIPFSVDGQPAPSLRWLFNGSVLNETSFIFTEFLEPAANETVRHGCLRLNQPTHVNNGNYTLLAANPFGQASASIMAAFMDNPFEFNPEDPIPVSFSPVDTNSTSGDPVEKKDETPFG

| binding result | Binder |
| --- | --- |
| no binding (tested: up to 10 µg/mL) | B1 |
| no binding (tested: up to 10 µg/mL) | B2 |
| no binding (tested: up to 10 µg/mL) | B3 |
| no binding (tested: up to 10 µg/mL) | B4 |
| no binding (tested: up to 10 µg/mL) | B5 |
| no binding (tested: up to 10 µg/mL) | B6 |
| no binding (tested: up to 10 µg/mL) | B7 |
| no binding (tested: up to 10 µg/mL) | B8 |
| no binding (tested: up to 10 µg/mL) | B9 |

target: human TrkC-His (human, UniProt Q16288 32-429); experiment: ELISA

| binding result | Binder |
| --- | --- |
| no binding (tested: up to 10 µg/mL) | B1 |
| no binding (tested: up to 10 µg/mL) | B2 |
| no binding (tested: up to 10 µg/mL) | B3 |
| no binding (tested: up to 10 µg/mL) | B4 |
| no binding (tested: up to 10 µg/mL) | B5 |
| no binding (tested: up to 10 µg/mL) | B6 |
| no binding (tested: up to 10 µg/mL) | B7 |
| no binding (tested: up to 10 µg/mL) | B8 |
| no binding (tested: up to 10 µg/mL) | B9 |

target: T1, human TrkB-His (human, UniProt Q16620 32-430); experiment: ELISA
T1 construct: in-house fusion of the TrkB ECD with poly-His, HEK293; also called huTrkB-His; hTrkB-His; not shown: poly-His tag

| binding result | Binder |
| --- | --- |
| binds | B10 |
| binds | B11 |
| binds | B12 |
| binds | B13 |
| binds | B14 |
| binds | B15 |
| binds | B16 |

target: T2, mouse TrkB-ECD-GST (mouse, UniProt P15209 32-429); experiment: ELISA
T2 construct: extracellular domain; in-house fusion, HEK293; also called mTrkB-ECD-GST; mTrkB (ELISA); not shown: glutathione S-transferase (GST) fusion part

| binding result | Binder |
| --- | --- |
| binds | B1 |
| binds | B2 |
| binds | B3 |
| binds | B4 |
| binds | B5 |
| binds | B6 |
| binds | B7 |
| binds | B8 |
| binds | B9 |

target: T1, human TrkB-His; experiment: BLI off-rate, mAb captured

| koff | Binder |
| --- | --- |
| 0.00545 s⁻¹ | B1 |
| 0.00544 s⁻¹ | B2 |
| 0.0113 s⁻¹ | B3 |
| 0.011 s⁻¹ | B4 |
| 0.00399 s⁻¹ | B5 |
| 0.00687 s⁻¹ | B6 |
| 0.00318 s⁻¹ | B7 |
| 0.00491 s⁻¹ | B8 |
| 0.000586 s⁻¹ | B9 |
